Non-standard residues stand in square brackets, D forms with d. Primed or numbered codes have the meaning given here. No end group written: not given here. *: point of attachment. Acetyl(1-pyrenyl) = O=C(Cc1ccc2ccc3cccc4ccc1c2c34)*; Aoc′ = aminooctanoic acid linker; pS = N[C@@H](COP(=O)(O)O)C(=O)O; Abu = CC[C@H](N)C(=O)O; AEEA = NCCOCCOCC(=O)O; Ava = NCCCCC(=O)O; βAla = NCCC(=O)O
T1: 14-3-3τ (phospho-Ser binding domain) (UniProt P27348 1-245)
T1 sequence (looked up): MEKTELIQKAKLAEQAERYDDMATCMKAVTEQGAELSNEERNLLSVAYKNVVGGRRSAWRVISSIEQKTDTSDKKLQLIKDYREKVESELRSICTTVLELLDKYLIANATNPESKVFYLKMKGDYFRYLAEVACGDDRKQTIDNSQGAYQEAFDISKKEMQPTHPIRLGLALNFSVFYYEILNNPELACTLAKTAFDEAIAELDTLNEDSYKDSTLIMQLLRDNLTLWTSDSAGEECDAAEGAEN

B1: coumarin-peptide P12 after phosphorylation (peptide)
peptide: GRTGRRF[pS]YP
modifications: also: 7-diethylaminocoumarin-3-carboxylic acid label, site not given here

How the values were obtained:
[1] = molecular target: peptide P2; experiment: Apparent KD of lead quencher dyes with peptide P2 (quenching of pyrene fluorescence); type: binding; settings: 5 μM pyrene-labeled P2 peptide, dye 0.5-500 μM, 100 mM Tris HCl pH 75, inner filter corrected
Description: KD values were acquired for the set of the ten lead quenchers with peptide P2, in order to obtain a target range for the quencher:peptide ratios to be employed in the subsequent assays (vide infra). These apparent KD values were determined using the quenching of pyrene fluorescence as a barometer of peptide/quencher complex stability. […] An inner filter effect (at high dye concentrations) was corrected as previously described^8.
Acquisition of Apparent KD Values for Lead Quencher Dyes with Peptide P2 (FIG. 2).

[2] = molecular target: T2, cAMP-dependent protein kinase (PKA) (Mus musculus, UniProt P05132); experiment: Control: phosphorylation-induced change in fluorescence of pyrene-labeled peptides in the absence of quenching dye; type: biochemical, murine; set-up: made in house; settings: 5 μM peptide, 10 nM PKA, 10 μM 14-3-3τ, 1 mM ATP
Description: 2 Identification of the lead pyrene-peptide/quencher pair. The eleven pyrene-substituted peptides (P1-P11 at 5 μM) were incubated with a 5-, 10-, 25-, and 50-fold molar excess of each of the ten lead quenchers in the presence of PKA, ATP, and the phospho-Ser binding domain 14-3-3τ. Several control experiments were performed, including conducting the assay in the absence of quenching agent. Under the latter conditions, only small enhancements in fluorescence (0-64%) were observed (Supporting Information). […] Consequently, the background was subtracted from all readings to establish a baseline upon which changes in fluorescence intensity could be quantified (Supporting Information).
Screening of Lead Quenching Dyes 1-10 with […]. […] The concentrations per well were: 10 nM PKA, 5 μM peptide, 10 μM 14-3-3τ, 1 mM ATP, 5 mM MgCl2, 2 mM DTT, and 25 μM, 50 μM, […] each of 10 different lead dyes in 50 mM Tris at pH 7.5 buffer. The HTS 7000 Bio Assay Reader was set in kinetic mode to monitor the progress of reaction (340 nm excitation filter, […] emission filter, 100 μs and 5 flashes).

[3] = molecular target: T2, cAMP-dependent protein kinase (PKA); experiment: PKA inhibitor IC50, standard radioactive ATP method; type: biochemical
[4] = molecular target: T2, cAMP-dependent protein kinase (PKA); experiment: PKA inhibitor IC50, Deep Quench method (Ponceau S/peptide P2, 14-3-3τ); type: biochemical, murine; set-up: made in house; settings: [ATP]=1 mM, 1 μM P2, 60 μM Ponceau S, 10 nM PKA
Description: This step was used to adjust for inter-assay variability and to verify that no significant drop in enzyme activity occurs over the course of the determinations. Subsequently, inhibitor was added at different concentrations. […] Fractional velocities (v/v0) were plotted against inhibitor concentration [I] and fit using the Sigma Plot version 8.02 software's four-parameter logistic nonlinear regression analysis.

[5] = molecular target: 14-3-3τ (phospho-Ser binding domain) (UniProt P27348); experiment: cell-based or functional assay
[6] = molecular target: phosphorylated P5 peptide AcDap(Pyr)RTGRRFS(PO3^2−)YP-amide; experiment: Apparent KD of Rose Bengal with phosphorylated P5 peptide; type: binding
[7] = molecular target: peptide P5; experiment: Apparent KD of lead quencher/peptide pair, Rose Bengal with peptide P5; type: binding
[8] = molecular target: T1, 14-3-3τ (phospho-Ser binding domain); experiment: cell-based or functional assay

Row | Molecule | Kd [1] | % Fluorescence Enhancement [2] | also measured
1 | O=[N+]([O-])c1ccc2c(N=Nc3ccc4ccccc4c3O)c(O)cc(S(=O)(=O)O)c2c1 [Peptide D18, Eriochrome Black T] | 14.3 ± 3.3 µM |  | 
2 | Ac-Gly-Arg-Dap(Pyr)-Gly-Arg-Arg-Phe-Ser-Tyr-Pro-amide [Peptide P4] |  | 40% | 
3 | Nc1ccc(N=Nc2ccc(-c3ccc(N=Nc4c(S(=O)(=O)O)cc5cc(S(=O)(=O)O)c(N=Nc6ccccc6)c(O)c5c4N)cc3)cc2)c(N)c1 [Peptide D34, Chlorazol Black E] | 7.7 ± 1.5 µM |  | 
4 | GRTGRRNAI-NH2 (C-terminus assumed) [PKI 14-22] |  |  | IC50 [3]: 1.6 ± 0.2 µM; IC50 [4]: 1.1 ± 0.1 µM
5 | phosphorylated peptide P5, AcDap(Pyr)RTGRRFS(PO3^2-)YP-amide |  |  | % Fluorescence Enhancement (phosphorylation-induced, PKA + ATP + 14-3-3τ, no quenching dye) [5]: 64%; Fluorescence Change (phosphorylation-induced fold-change), P5/Rose Bengal (1:5), plate reader - bottom read [5]: 8 fold; Fluorescence Change (phosphorylation-induced fold-change), P5/Rose Bengal (1:5), plate reader - top read [5]: 30 fold; Fluorescence Change (phosphorylation-induced fold-change), P5/Rose Bengal (1:5), spectrofluorimeter [5]: 64 fold
6 | phosphorylated peptide P4, Ac-GRDap(Pyr)GRRFSYP-amide after phosphorylation of Ser by PKA |  |  | % Fluorescence Enhancement (phosphorylation-induced, PKA + ATP + 14-3-3τ, no quenching dye) [5]: 40%
7 | Pyr-Abu-Gly-Arg-Thr-Gly-Arg-Arg-Phe-Ser-Tyr-Pro-amide ({Acetyl(1-pyrenyl)}-[Abu]GRTGRRFSYP-NH2; SMILES CC[C@H](NC(=O)Cc1ccc2ccc3cccc4ccc1c2c34)C(=O)NCC(=O)N[C@@H](CCCNC(=N)N)C(=O)N[C@H](C(=O)NCC(=O)N[C@@H](CCCNC(=N)N)C(=O)N[C@@H](CCCNC(=N)N)C(=O)N[C@@H](Cc1ccccc1)C(=O)N[C@@H](CO)C(=O)N[C@@H](Cc1ccc(O)cc1)C(=O)N1CCC[C@H]1C(N)=O)[C@@H](C)O) [Peptide P7] |  | 47% | 
8 | O=C(O)c1nn(-c2ccc(S(=O)(=O)O)cc2)c(O)c1N=Nc1ccc(S(=O)(=O)O)cc1 [Peptide D47, Tartrazine] | 15 ± 2.1 µM |  | 
9 | O=C(O)c1c(Cl)c(Cl)c(Cl)c(Cl)c1-c1c2cc(I)c(=O)c(I)c-2oc2c(I)c(O)c(I)cc12 [Peptide D43, Rose Bengal] | 7.5 ± 1.6 µM |  | Kd [6]: 0.21 ± 0.04 µM; Kd ([7]; Rose Bengal with unphosphorylated AcDap(Pyr)RTGRRFSYP-amide (P5)): 0.4 ± 0.03 µM; Kd ([7]; Rose Bengal with unphosphorylated peptide P5): 0.4 ± 0.03 µM
10 | Ac-Gly-Arg-Thr-Dap(Pyr)-Arg-Arg-Phe-Ser-Tyr-Pro-amide [Peptide P3] |  | 19% | 
11 | Pyr-Aoc-Gly-Arg-Thr-Gly-Arg-Arg-Phe-Ser-Tyr-Pro-amide ({Acetyl(1-pyrenyl)-Aoc′}-GRTGRRFSYP-NH2) [Peptide P10] |  | 39% | 
12 | Pyr-miniPEG™-Gly-Arg-Thr-Gly-Arg-Arg-Phe-Ser-Tyr-Pro-amide ({Acetyl(1-pyrenyl)-AEEA}-GRTGRRFSYP-NH2; SMILES C[C@@H](O)[C@H](NC(=O)[C@H](CCCNC(=N)N)NC(=O)CNC(=O)COCCOCCNC(=O)Cc1ccc2ccc3cccc4ccc1c2c34)C(=O)NCC(=O)N[C@@H](CCCNC(=N)N)C(=O)N[C@@H](CCCNC(=N)N)C(=O)N[C@@H](Cc1ccccc1)C(=O)N[C@@H](CO)C(=O)N[C@@H](Cc1ccc(O)cc1)C(=O)N1CCC[C@H]1C(N)=O) [Peptide P11] |  | 38% | 
13 | Pyr-BAla-Gly-Arg-Thr-Gly-Arg-Arg-Phe-Ser-Tyr-Pro-amide ({Acetyl(1-pyrenyl)}-[βAla]GRTGRRFSYP-NH2; SMILES C[C@@H](O)[C@H](NC(=O)[C@H](CCCNC(=N)N)NC(=O)CNC(=O)CCNC(=O)Cc1ccc2ccc3cccc4ccc1c2c34)C(=O)NCC(=O)N[C@@H](CCCNC(=N)N)C(=O)N[C@@H](CCCNC(=N)N)C(=O)N[C@@H](Cc1ccccc1)C(=O)N[C@@H](CO)C(=O)N[C@@H](Cc1ccc(O)cc1)C(=O)N1CCC[C@H]1C(N)=O) [Peptide P6] |  | 49% | 
14 | Cc1cc(-c2ccc(/N=N/c3c(S(=O)(=O)O)cc4cc(S(=O)(=O)O)cc(N)c4c3O)c(C)c2)ccc1/N=N/c1c(S(=O)(=O)O)cc2cc(S(=O)(=O)O)cc(N)c2c1O [Peptide D48, Trypan Blue] | 11.9 ± 3.6 µM |  | 
15 | Ac-Gly-Arg-Thr-Gly-Arg-Arg-Phe-Ser-Dap(Pyr)-Pro-amide [Peptide P1] |  | 0% | 
16 | Reactive Blue 2 [Peptide D6] | 19.6 ± 3.4 µM |  | 
17 | Pyr-Ava-Gly-Arg-Thr-Gly-Arg-Arg-Phe-Ser-Tyr-Pro-amide ({Acetyl(1-pyrenyl)-Ava}-GRTGRRFSYP-NH2; SMILES C[C@@H](O)[C@H](NC(=O)[C@H](CCCNC(=N)N)NC(=O)CNC(=O)CCCCNC(=O)Cc1ccc2ccc3cccc4ccc1c2c34)C(=O)NCC(=O)N[C@@H](CCCNC(=N)N)C(=O)N[C@@H](CCCNC(=N)N)C(=O)N[C@@H](Cc1ccccc1)C(=O)N[C@@H](CO)C(=O)N[C@@H](Cc1ccc(O)cc1)C(=O)N1CCC[C@H]1C(N)=O) [Peptide P8] |  | 31% | 
18 | Cc1cc(-c2ccc(/N=N/c3ccc4c(S(=O)(=O)O)cc(S(=O)(=O)O)c(N)c4c3O)c(C)c2)ccc1/N=N/c1ccc2c(S(=O)(=O)O)cc(S(=O)(=O)O)c(N)c2c1O [Peptide D3, Evans Blue] | 2.8 ± 0.8 µM |  | 
19 | phosphorylated peptide P3, Ac-GRTDap(Pyr)RRFSYP-amide after phosphorylation of Ser by PKA |  |  | % Fluorescence Enhancement (phosphorylation-induced, PKA + ATP + 14-3-3τ, no quenching dye) [5]: 19%
20 | phosphorylated peptide P2, Ac-GRTGRRDap(Pyr)SYP-amide after phosphorylation of Ser by PKA |  |  | % Fluorescence Enhancement (phosphorylation-induced, PKA + ATP + 14-3-3τ, no quenching dye) [5]: 51%; Fluorescence Change (phosphorylation-induced fold-change), P2/Ponceau S (1:50), plate reader - bottom read [5]: 7 fold; Fluorescence Change (phosphorylation-induced fold-change), P2/Ponceau S (1:50), plate reader - top read [5]: 15 fold; Fluorescence Change (phosphorylation-induced fold-change), P2/Ponceau S (1:50), spectrofluorimeter [5]: 21 fold
21 | O=S(=O)(O)c1ccc(/N=N/c2ccc(/N=N/c3c(O)c(S(=O)(=O)O)cc4cc(S(=O)(=O)O)ccc34)c(S(=O)(=O)O)c2)cc1 [Peptide D42, Ponceau S] | 11.2 ± 2.7 µM |  | 
22 | B1 |  |  | enhancement in fluorescence (16 µM P12, 10 µM 14-3-3, 30 µM Acid Green 27) [8]: 225 fold
